The source of these data is patent publication US20200181277A1.

Test [1] concerns the target purified human C1q (human) (UniProt P02745). Description: cell-based or functional assay.
A further test deals with human CD40 (human) (UniProt P25942). Nature of the test: cell-based or functional assay.
Chain of human CD40 (human) (P25942 21-277): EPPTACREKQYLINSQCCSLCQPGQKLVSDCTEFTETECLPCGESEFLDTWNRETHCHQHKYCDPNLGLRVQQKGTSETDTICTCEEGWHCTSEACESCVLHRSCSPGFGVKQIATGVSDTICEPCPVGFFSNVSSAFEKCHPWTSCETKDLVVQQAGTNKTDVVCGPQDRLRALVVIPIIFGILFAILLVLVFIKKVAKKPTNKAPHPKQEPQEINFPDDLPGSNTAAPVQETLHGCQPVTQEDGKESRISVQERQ

IgG1-b12 (antibody) returned a C1q EC90 (µg/mL), viability assay on WIL2-S SF cells in test [1] of more than 2.5 µg/mL.

The substance “purified, recombinant CD40 ligand (R&D systems, Cat No. 6420-CL-025/CF) (from UniProt P29965 108-261)” registered a CD40 response, luciferase reporter cells, EC50 in the test with human CD40 (human) of 0.113 µg/mL.
